Positions of bridges follow the written chain, without caps; N, C: chain ends. No end group written: not given here.
Legend:
[1] = biological target: T1, receptor for epidermic growth factor (EGF-R) on Capan-1 and A431 cells (human (human cell line Capan-1), UniProt P00533 25-1210); experiment: competition with 125I-EGF on Capan-1 cells, two-site fit (Graphpad Inplot4); high affinity site
T1 construct: whole, on cells; both are called EGF receptors; also called EGF receptor; receptor of EGF
Experimental: (§1) From the previous adjustment, the value of $IC50$ for the two binding sites and the percentage of each type of binding sites was determined.

[2] = biological target: T1, receptor for epidermic growth factor …; experiment: competition with 125I-EGF on Capan-1 cells, two-site fit (Graphpad Inplot4); low affinity site
Experimental: as §1

B1: potato carboxypeptidase inhibitor, isoform IIa, recombinant (other)
chain: EQHADPICNKPCKTHDDCSGAWFCQACWNSARTCGPYVG
modifications: disulfide 12-27, 18-34, 8-24
notes: Secreted from E. coli MC1061 (pIMAM3, OmpA signal peptide directly before the first codon of native PCI); also called PCI; rPCI
Work on B1 yielded an IC50 [1] of 0.014 nM and an IC50 [2] of 579 µM.

Reference: patent US6379959 (UNIVERSITAT AUTONOMA DE BARCELONA, dated 2002)
